This note sets out measurements from the supplement of paper PMC10567573.

The labels stand for the following.
B1: C8orf76 (parent)
chain: LYLQLAICSSLQNLEKTIFCLQKL
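Also: lentivirally expressed fusions sorted by FACS into six bins by GFP to DsRed ratio, PSI derived from sequencing read proportions per bin multiplied by bin number.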

The variants in the data set derive from B1. The experiment in a line: protein stability index of a GFP-peptide fusion (GPS, HEK-293T) (PSI 1-6); higher = more stable. Conditions: c terminus: a fixed tail appended.
For the variant LYLQLAICSSLQNLEKTIFALQKL, the protein stability index was found to be 2.85.

Consider LYLQLAICSSLQNLEKTIFPLQKL, for which the protein stability index was found to be 1.88.

On to LYLQLAICSSLQNLEKTIFTLQKL, for which the protein stability index came to 2.13.

Turning to LYLQLAICSSLQNLEKTIFKLQKL, the protein stability index is 2.36.

In the case of LYLQLAICSSLQNLEKTIFFLQKL, the protein stability index was 2.83.

Turning to LYLQLAICSSLQNLEKTIFDLQKL, the protein stability index worked out at 2.93.

In the case of LYLQLAICSSLQNLEKTIFILQKL, the protein stability index was 2.15.

Take LYLQLAICSSLQNLEKTIFWLQKL: the protein stability index was 2.66.

With LYLQLAICSSLQNLEKTIFGLQKL, the protein stability index amounted to 3.1.

Consider LYLQLAICSSLQNLEKTIFHLQKL, for which the protein stability index worked out at 3.83.

Turning to LYLQLAICSSLQNLEKTIFRLQKL, the protein stability index amounted to 3.09.

Regarding LYLQLAICSSLQNLEKTIFMLQKL, the protein stability index was 1.94.

On to LYLQLAICSSLQNLEKTIFYLQKL, for which the protein stability index amounted to 2.18.

As for LYLQLAICSSLQNLEKTIFELQKL, the protein stability index is 1.86.

Take LYLQLAICSSLQNLEKTIFVLQKL: the protein stability index stood at 3.44.

Turning to LYLQNAICSSLQNLEKTIFCLQKL, the protein stability index came to 3.62.

For the variant LYLQPAICSSLQNLEKTIFCLQKL, the protein stability index was 2.23.

On to LYLQYAICSSLQNLEKTIFCLQKL, for which the protein stability index turned out to be 2.57.

Take LYLQTAICSSLQNLEKTIFCLQKL: the protein stability index came to 2.24.

As for LYLQRAICSSLQNLEKTIFCLQKL, the protein stability index was 1.92.

Regarding LYLQKAICSSLQNLEKTIFCLQKL, the protein stability index amounted to 1.36.

LYLQWAICSSLQNLEKTIFCLQKL: the protein stability index worked out at 2.82.

Take LYLQHAICSSLQNLEKTIFCLQKL: the protein stability index amounted to 1.67.

Turning to LYLQVAICSSLQNLEKTIFCLQKL, the protein stability index is 2.05.

With LYLQLAICSSLQNLEKPIFCLQKL, the protein stability index came to 1.98.

For LYLQLAICSSLQNLEKYIFCLQKL, the protein stability index stood at 3.47.

Consider LYLQLAICSSLQNLEKVIFCLQKL, for which the protein stability index amounted to 2.84.

LYLQLAICSSLQNLEKGIFCLQKL: the protein stability index came to 4.96.

LYLQLAICSSLQNLEKQIFCLQKL: the protein stability index stood at 3.45.

For LYLQLAICSSLQNLEKWIFCLQKL, the protein stability index is 4.22.

With LYLQLAICSSLQNLEKMIFCLQKL, the protein stability index is 3.56.

Regarding LYLQLAICSSLQNLEKCIFCLQKL, the protein stability index came out at 2.55.

In the case of LYLQLAICSSLQNLEKNIFCLQKL, the protein stability index came to 2.46.

With LYLQLAICSSLQNLEKLIFCLQKL, the protein stability index is 4.

For LYLQLAICSSLQNLEKDIFCLQKL, the protein stability index came to 2.31.

Regarding LYLQLAICSSLQNLEKFIFCLQKL, the protein stability index was determined as 3.63.

For LYLQLAICSSLQNLEKHIFCLQKL, the protein stability index amounted to 2.34.

Take LYLQLAICSKLQNLEKTIFCLQKL: the protein stability index was 2.11.

Take LYLQLAICSVLQNLEKTIFCLQKL: the protein stability index stood at 3.44.

For the variant LYLQLAICSPLQNLEKTIFCLQKL, the protein stability index was 2.52.

For the variant LYLQLAICSHLQNLEKTIFCLQKL, the protein stability index came to 3.71.

As for LYLQLAICSFLQNLEKTIFCLQKL, the protein stability index was 4.67.

Regarding LYLQLAICSALQNLEKTIFCLQKL, the protein stability index was 2.36.

Consider LYLQLAICSNLQNLEKTIFCLQKL, for which the protein stability index stood at 3.36.

For the variant LYLQLAICSLLQNLEKTIFCLQKL, the protein stability index was determined as 2.99.

In the case of LYLQLAICSTLQNLEKTIFCLQKL, the protein stability index is 2.38.

In the case of LYLQLAICVSLQNLEKTIFCLQKL, the protein stability index came out at 3.45.

With LYLQLAICLSLQNLEKTIFCLQKL, the protein stability index stood at 2.28.

LYLQLAICGSLQNLEKTIFCLQKL: the protein stability index was determined as 3.03.

For the variant LYLQLAICISLQNLEKTIFCLQKL, the protein stability index turned out to be 2.34.

For the variant LYLQLAICNSLQNLEKTIFCLQKL, the protein stability index was 4.23.

LYLQLAICDSLQNLEKTIFCLQKL: the protein stability index came to 2.72.

Consider LYLQLAICWSLQNLEKTIFCLQKL, for which the protein stability index is 1.02.

Regarding LYLQLAICKSLQNLEKTIFCLQKL, the protein stability index is 1.75.

With LYLQLAICASLQNLEKTIFCLQKL, the protein stability index is 3.6.

As to LYLQLAICMSLQNLEKTIFCLQKL, the protein stability index was 4.15.

LYLQLAICSSLQNLEKTILCLQKL: the protein stability index was determined as 3.21.

LYLQLAICSSLQNLEKTIVCLQKL: the protein stability index was determined as 2.

As to LYLQLAICSSLQNLEKTITCLQKL, the protein stability index worked out at 1.71.

As to LYLQLAICSSLQNLEKTINCLQKL, the protein stability index stood at 3.32.

Turning to LYLQLAICSSLQNLEKTIGCLQKL, the protein stability index came to 2.83.

Regarding LYLQLAICSSLQNLEKTIYCLQKL, the protein stability index worked out at 4.28.

For the variant LYLQLAICSSLQNLEKTIWCLQKL, the protein stability index came to 2.24.

As to LYLQLAICSSLQNLEKTIKCLQKL, the protein stability index is 3.04.

In the case of LYLQLAICSSLQNLEKTICCLQKL, the protein stability index is 2.27.

In the case of LYLQLAICSSLQNLEKTIMCLQKL, the protein stability index is 3.62.

With LYLQLAICSSLQNLEKTIACLQKL, the protein stability index worked out at 2.89.

As for LYLQLAICSSLQNLEKTIECLQKL, the protein stability index was determined as 1.81.

Turning to LYLQLAICSSLQNLEKTIICLQKL, the protein stability index is 2.8.

Regarding LYLQLAICSSLQPLEKTIFCLQKL, the protein stability index was 3.23.

Regarding LYLQLAICSSLQMLEKTIFCLQKL, the protein stability index was 3.43.

Turning to LYLQLAICSSLQYLEKTIFCLQKL, the protein stability index worked out at 2.21.

On to LYLQLAICSSLQALEKTIFCLQKL, for which the protein stability index is 2.98.

As for LYLQLAICSSLQILEKTIFCLQKL, the protein stability index came out at 1.93.

On to LYLQLAICSSLQSLEKTIFCLQKL, for which the protein stability index came to 3.71.

With LYLQLAICSSLQFLEKTIFCLQKL, the protein stability index amounted to 2.51.

As to LYLQLAICSSLQDLEKTIFCLQKL, the protein stability index was found to be 3.49.

Turning to LYLQLAICSSLQCLEKTIFCLQKL, the protein stability index was found to be 2.25.

Regarding LYLQLAICSSLQRLEKTIFCLQKL, the protein stability index amounted to 3.01.

As for LYLQLAICSSLQNAEKTIFCLQKL, the protein stability index was determined as 2.33.

Consider LYLQLAICSSLQNNEKTIFCLQKL, for which the protein stability index is 2.84.

LYLQLAICSSLQNKEKTIFCLQKL: the protein stability index amounted to 2.9.

On to LYLQLAICSSLQNPEKTIFCLQKL, for which the protein stability index is 2.32.

Take LYLQLAICSSLQNMEKTIFCLQKL: the protein stability index was found to be 2.22.

With LYLQLAICSSLQNDEKTIFCLQKL, the protein stability index worked out at 3.85.

As to LYLQLAICSSLQNGEKTIFCLQKL, the protein stability index is 2.24.

As for LYLQLAICSSLQNTEKTIFCLQKL, the protein stability index was 1.65.

For the variant LYLQLAICSSLQNHEKTIFCLQKL, the protein stability index is 2.93.

Take LYLQLAICSSLQNIEKTIFCLQKL: the protein stability index came to 2.96.

In the case of LYLQLAICSSLQNEEKTIFCLQKL, the protein stability index was 1.9.

In the case of LYLQLAICSSLPNLEKTIFCLQKL, the protein stability index was determined as 2.52.

Consider LYLQLAICSSLNNLEKTIFCLQKL, for which the protein stability index is 2.07.

LYLQLAICSSLVNLEKTIFCLQKL: the protein stability index turned out to be 2.3.

As for LYLQLAICSSLTNLEKTIFCLQKL, the protein stability index is 4.52.
